US20190202896A1 (NOVOBIND LIVESTOCK THERAPEUTICS, published 2019)
Changes are numbered by the printed parent chain.

T1: PrgI-SipD
T1 construct: also called PrgI-SipD fusion
T1 chain: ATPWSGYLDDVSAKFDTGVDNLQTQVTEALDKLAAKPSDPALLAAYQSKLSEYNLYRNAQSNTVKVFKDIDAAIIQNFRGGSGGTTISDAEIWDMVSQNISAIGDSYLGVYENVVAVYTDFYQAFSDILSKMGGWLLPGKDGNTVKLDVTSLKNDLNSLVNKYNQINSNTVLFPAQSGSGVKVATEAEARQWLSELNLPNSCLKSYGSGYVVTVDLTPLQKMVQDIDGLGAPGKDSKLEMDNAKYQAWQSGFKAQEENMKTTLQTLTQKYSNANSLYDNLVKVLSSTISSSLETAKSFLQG

T2: FimA (Salmonella Type-1 fimbrial protein, A chain), recombinant (Salmonella (serovar ), UniProt P37921 23-185)
T2 sequence: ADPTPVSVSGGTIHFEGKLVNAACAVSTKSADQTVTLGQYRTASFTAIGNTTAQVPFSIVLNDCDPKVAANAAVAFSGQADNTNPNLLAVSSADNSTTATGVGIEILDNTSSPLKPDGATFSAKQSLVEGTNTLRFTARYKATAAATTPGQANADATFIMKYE

T3: PrgI (Salmonella Type III secretion needle protein), recombinant (Salmonella typhimurium (strain LT2) as …, UniProt P41784 1-80)
T3 sequence: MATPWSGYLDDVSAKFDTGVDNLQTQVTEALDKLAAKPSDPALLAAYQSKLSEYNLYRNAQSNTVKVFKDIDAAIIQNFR

B1: NBX0218 (VHH)
VHH: QVQLQESGGGLVQAGGSLSLSCTASGSAFSGDAMGWYRRAPGKQREFVAGISSGAITNYMDSVKGRFTISRDNAKNTVYLQMTKLKPEDTAVYYCNRIQAVLRGNSGWGQGTQVTVSS
notes: also called Clone 115
B2: NBX0220 (VHH)
VHH: QVQLQESGGGLVQAGGSLTLSCTASGSAFSGDAMGWYRRAPGKEREFVAGISSGGIPNYMGSVQGRFTISRDNAKNTVYLQMRRLKPEDTAVYYCNSISAVLRGNGVWGQGTQVTVSS
notes: also called Clone 117
B3: NBX0231 (VHH)
VHH: B1 VHH with S19T, A24T, K43Q, Q44E, A55G, D61N, S62F, K84S, R97S, Q99K
notes: also called Clone 128
B4: NBX0233 (VHH)
VHH: B1 VHH with E46D, A55H, R97S, Q99T
notes: also called Clone 130
B5: NBX0235 (VHH)
VHH: B1 VHH with T23R, A24V, A55G, T57E, Q81R, T83S, K84S, R97L, Q99K
notes: also called Clone 132
B6: NBX0219 (VHH)
VHH: QVQLQESGGGLVQPGGSLSLSCTASGSAFSGGDAMGWYRRAPGKQREFVAGISSGGIANYMDSVKGRFTISRDNAKKAVYLQMTSLKPEDTALYYCNSITAVLRGNSGWGQGTQVTVSS
notes: also called Clone 116
B7: NBX0221 (VHH)
VHH: QVQLQESGGGLVQAGGSLRLSCAASGLTFNNYAMGWFRQAPGKEREFVATISRDGTNTRYADSVKGRFTISRDNAKNTVDLQMNSLKPEDTAVYYCGVGRGTGYAYTAINEYDYSKWGQGTQVTVSS
notes: also called Clone 118
B8: NBX0227 (VHH)
VHH: B7 VHH with S21A, N57S, D80N, S85R, T102S, T107S, K116S
notes: also called Clone 124
B9: NBX0232 (VHH)
VHH: B7 VHH with N30H, R59H, T102S
notes: also called Clone 129
B10: NBX0236 (VHH)
VHH: B7 VHH with D80N, N110R, Y112H, K116S
notes: also called Clone 133
B11: NBX0222 (VHH)
VHH: QVQLQESGGGLVQAGGSLRLSCAASGIDSSFYVMAWYRQAPGKQRELVASLGTPDSATYADFVKGRFIISRDNAKSTVYLQMNSLKPEDTAVYYCYGLYRQVYWGQGTQVTVSS
notes: also called Clone 119
B12: NBX0223 (VHH)
VHH: QVQLQESGGGLVQAGGSLRLSCVASGIDSSFYVMAWYRQAPGKQRELVASISSADSPRYEDFVKGRFTISRDNGKNTVYLQMNSLKPEDTAVYYCYGLYRQVHWGQGTQVTVSS
notes: also called Clone 120
B13: NBX0226 (VHH)
VHH: B12 VHH with V23A, D28T, F31L, S50H, S52N, A54G, E60A, K64Q
notes: also called Clone 123
B14: NBX0224 (VHH)
VHH: QVQLQQSGGGLVQAGGSLRLSCAASGLTFSSYAMGWFRQAPGKEREFIVAIGWSGGSTYYADSVKGRFTISRDNAKNTVYLHMNSLKPEDTAVYYCAARRTTAWGKGTDYWGQGTQVTVSS
notes: also called Clone 121
B15: NBX0228 (VHH)
VHH: QVQLQESGGGLVQAGGSLRLSCAASGIDSSFYVMAWYRQAPGQQRELVASISMTSADSPRYADFVKGRFTISRDNAKSTVYLQMNSLKPEDTAVYYCYGLYRQVHWGQGTQVTVSS
notes: also called Clone 125
B16: NBX0229 (VHH)
VHH: QVQLQESGGGLVQAGGSLRLSCAASGSGILFRISAMGWYRQAPGKERDLVAGISSGGSTNYADSVKGRFTISRDNAKNTVYLQMNSLKPEDTAVYYCNIVGRTDSWGQGTQVTVSS
notes: also called Clone 126
B17: NBX0230 (VHH)
VHH: QVQLQESGGGSVQAGGSLRLSCAASARTLSNYAMGWFRQAPGKEREFVATISRSGGSIHYADSVKGRFTISRDNAKNTVNLQMNSLKVEDTAVYYCGRARGTGYAYTALNQYDYDYWGQGTQVTVSS
notes: also called Clone 127
B18: NBX0234 (VHH)
VHH: B17 VHH with S11L, A26G, L29F, N31T, G56D, S57N, H59Y, N80S, Y106H
notes: also called Clone 131
B19: NBX0100 (VHH)
VHH: QVKLEESGGGLVQAGGSLRLSCAVSGSIFSTNLMGWYRQAPGKQRGFVAHITSGGNTDYLDSVKGRFTISRDNAKNTVYLQMNSLKPEDTAVYYCAAQTLGSSYYDAWGQGTQVTVSS
notes: also called Clone 92
B20: NBX0200 (VHH)
VHH: QVQLQESGGGLVQAGGSLRLSCAASGRTSSSAYTAWFRQAPGNEREFVASISWSGTTTYYADPVKGRFTISRDNAKNTVYLQMNSLKPDDTAVYYCAADRRSTIGSPRQQYAYWGQGTQVTVSS
notes: also called Clone 97
B21: NBX0207 (VHH)
VHH: QVQLQESGGGLVQAGKSLRLSCAASTAILSIDSMGWNRQAVGNQRELVAVIARGGSTKYADSVKGRFTITRDISKNTIYLQMNSLKPEDTGVYYCAADPGGASPLSWGQGTQVTVSL
notes: also called Clone 104
B22: NBX0208 (VHH)
VHH: QVQLQESGGGMVQAGGSLRLACTASGDISTIDVMGWNRQAPGKHRELVAIIARGGTIKYADSVKGRFTISRDNTKNTVTVYLQMNNVNAEDTAVYYCAVDTGSPRLTWGQGTQVTVSS
notes: also called Clone 105
B23: NBX0209 (VHH)
VHH: QVQLQESGGGLVQAGGSLRLSCAASGFTFSSSIMAWYRQAPGKQREAIASIPSFGSAVYADSVKDRFTISRDNNKNMVYLQMNSLKPEDTAVYYCNTRLYWGQGTQVTVSS
notes: also called Clone 106
B24: NBX0211 (VHH)
VHH: B23 VHH with S31T, S32N, M34L, P52T, S53P, D61N, Y94S, R98Q, S111T
notes: also called Clone 108
B25: NBX0215 (VHH)
VHH: B23 VHH with S32A, N83D, S111T
notes: also called Clone 112
B26: NBX0210 (VHH)
VHH: QVQLQESGGGLVQAGGSLRLACTASGDISSISVMGWNRQAPGKQQRELVAAIASGGSVKYADSVKGRFTISRDNTKNTVYLQMNSVNAEDTAVYYCAVDTGSPRLTWGQGTQVTVSS
notes: also called Clone 107
B27: NBX0212 (VHH)
VHH: QVQLQESGGGLVQAGGSLRLSCAASTSILSINAMGWNREAPGNRREMVAIIAPGGTTNYADSVKGRFTITRDISKNTIYLQMNNLKPEDTGVYYCAADPGGQSPLSWGQGTQVTVSL
notes: also called Clone 109
B28: NBX0213 (VHH)
VHH: QVQLQESGGGSVQAGGSLRLSCAASGSISSITAMGWNRQAPGNQRELVAVIARGGMIKYDDSVKGRFTISRDIAKNTVFLQMDSLKPEDTGVYYCAVDNGDPRLHWGQGIQVTVSS
notes: also called Clone 110
B29: NBX0104 (VHH)
VHH: QVQLVESGGGLVQPGGSLRLSCAASGVAFNSRIMGWYRQAPGKQRELVALITSGGSTNYADSVKGRFTISRNNAKKTVYLQMNSLKPEDTAVYYCNIRNYWGQGTQVTVSS
notes: also called Clone 93
B30: NBX0214 (VHH)
VHH: QVQLQESGGGLVQAGGSLRLSCAASGSISSITAMGWNRQAPGNQQRDLVAVIARGGMTKYADSVQGRFTISRDIAKNTVYLQMNSLKPEDTGVYYCALDNGDPRLHWGQGIQVTVSS
notes: also called Clone 111
B31: NBX0217 (VHH)
VHH: B30 VHH with K76N, D99Y
notes: also called Clone 114
B32: NBX0216 (VHH)
VHH: QVQLQESGGGLVQAGGSLRLSCAASTSILSIDAMGWNRQAPGNQRRDLVAVIARGGSTQYADSVKGRFTITRDISKNTIYLQMNSLKPEYTGVYYCAADPGGASGLSWGQGTQVTVSL
notes: also called Clone 113
B33: NBX0105 (VHH)
VHH: QVQLVESGGGLVQAGGSLRLSCAASGRTFNTYYMGWFRQAPGKEREFVSAIRWSDGGTWYADSMKGRFTISRDNAKNTGYLQMNSLKPEDTAIYYCNANVYDGNRWRTYWGQGTQVTVSS
notes: also called Clone 94
B34: NBX0108 (VHH)
VHH: QVKLEESGGGLVRAGGSLTLSCGASRGTFRTYSMGWFRQAPGKEREFVAAITWNGKYTYYGDSVQGRFTISKDNAKNTVSLQMNRLNPEDTAVYYCAANPIPTAQPPGIMAARSYVHWGQGTQVTVSS
notes: also called Clone 95

Target: T1, PrgI-SipD
Test: phage ELISA, antigen-coated wells, anti-M13-HRP, A405
For B1, the “binding over background (PBS-only wells)” value was at least 4 fold. With B2 the “binding over background (PBS-only wells)” value was at least 4 fold. With B3 the “binding over background (PBS-only wells)” value was at least 4 fold. With B4 the “binding over background (PBS-only wells)” value was at least 4 fold. In the case of B5, the “binding over background (PBS-only wells)” value is reported as at least 4 fold. B6 was tested, and the “binding over background (PBS-only wells)” value was at least 4 fold. For B7, the “binding over background (PBS-only wells)” value was at least 4 fold. In the case of B8, the “binding over background (PBS-only wells)” value is reported as at least 4 fold. In the case of B9, the “binding over background (PBS-only wells)” value is reported as at least 4 fold. In the case of B10, the “binding over background (PBS-only wells)” value is reported as at least 4 fold. With B11 the “binding over background (PBS-only wells)” value was at least 4 fold. B12 was tested, and the “binding over background (PBS-only wells)” value was at least 4 fold. For B13, the “binding over background (PBS-only wells)” value was at least 4 fold. For B14, the “binding over background (PBS-only wells)” value was at least 4 fold. With B15 the “binding over background (PBS-only wells)” value was at least 4 fold. In the case of B16, the “binding over background (PBS-only wells)” value is reported as at least 4 fold. For B17, the “binding over background (PBS-only wells)” value was at least 4 fold. For B18, the “binding over background (PBS-only wells)” value was at least 4 fold.

Each binder was assayed against T2, FimA (Salmonella Type-1 fimbrial …) in the same assay as above.
B19 was tested, and the “binding over background (PBS-only wells)” value was at least 4 fold. With B20 the “binding over background (PBS-only wells)” value was at least 4 fold.

What follows are binders tested against T3, PrgI (Salmonella Type III secretion …) in the same assay as above.
For B21, the “binding over background (PBS-only wells)” value was at least 4 fold. With B22 the “binding over background (PBS-only wells)” value was at least 4 fold. In the case of B23, the “binding over background (PBS-only wells)” value is reported as at least 4 fold. In the case of B24, the “binding over background (PBS-only wells)” value is reported as at least 4 fold. With B25 the “binding over background (PBS-only wells)” value was at least 4 fold. With B26 the “binding over background (PBS-only wells)” value was at least 4 fold. For B27, the “binding over background (PBS-only wells)” value was at least 4 fold. With B28 the “binding over background (PBS-only wells)” value was at least 4 fold. In the case of B29, the “binding over background (PBS-only wells)” value is reported as at least 4 fold. For B30, the “binding over background (PBS-only wells)” value was at least 4 fold. B31 was tested, and the “binding over background (PBS-only wells)” value was at least 4 fold. With B32 the “binding over background (PBS-only wells)” value was at least 4 fold. With B33 the “binding over background (PBS-only wells)” value was at least 4 fold. For B34, the “binding over background (PBS-only wells)” value was at least 4 fold.
